The values that follow come from US20240287169A1 (AULOS BIOSCIENCE, published 2024).

Sequences and labels used below:
T1: Mouse IL-2 (mouse, UniProt P04351 21-169)
T1 construct: Soluble analyte in SPR; also called mIL-2
T1 sequence (looked up): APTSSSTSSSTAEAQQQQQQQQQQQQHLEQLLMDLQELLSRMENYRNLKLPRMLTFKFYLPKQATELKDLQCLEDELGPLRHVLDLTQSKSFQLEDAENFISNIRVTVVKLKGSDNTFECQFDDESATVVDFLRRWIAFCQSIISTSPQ

T2: Fc-tagged CD122 (extracellular domain) (human, UniProt P14784 27-240)
T2 construct: extracellular domain; Captured on an anti-human Fc chip; also called Fc tagged hCD122; not shown: Fc tag
T2 sequence (looked up): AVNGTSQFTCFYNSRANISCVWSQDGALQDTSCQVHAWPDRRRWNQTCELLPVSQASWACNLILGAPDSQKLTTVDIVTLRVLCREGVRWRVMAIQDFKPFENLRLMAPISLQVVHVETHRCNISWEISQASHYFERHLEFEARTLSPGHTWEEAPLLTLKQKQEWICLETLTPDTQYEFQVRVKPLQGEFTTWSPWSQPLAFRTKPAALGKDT

B1: BDG17.069 (AU-007) (antibody, human IgG1, kappa, L234A L235A, V domains shown)
VH: QVQLVQSGAEVKKPGSSVKVSCKASGYSITDDLIHWVRQAPGQGLEWMGWIDPEDGETNYAQKFQGRVTLTADTSTSTAYMELSSLRSEDTAVYYCARSLDSTWIYPFAYWGQGTLVTVSS
VL: DIVMTQSPDSLAVSLGERATINCKSSQSLLRRGNQKNHLAWYQQKPGQPPKLLIYDASTGQSGVPDRFSGSGSGTDFTLTISSLQAEDVAVYYCLQSYITPPTFGAGTKVEIKR
notes: Human IgG1-LALA
B2: human CD25 (soluble) (receptor, UniProt P01589 22-213, looked up)
chain: ELCDDDPPEIPHATFKAMAYKEGTMLNCECKRGFRRIKSGSLYMLCTGNSSHSSWDNQCQCTSSATRNTTKQVTPQPEEQKERKTTEMQSPMQPVDQASLPGHCREPPPWENEATERIYHFVVGQMVYYQCVQGYRALHRGPAESVCKMTHGKTRWTQPQLICTGEMETSQFPGEEKPQASPEGRPESETSC
notes: Injected as soluble analyte at 1000 nM / 1 uM; also called hCD25; IL-2Rα
B3: biotinylated human CD25 (receptor, UniProt P01589 22-213, looked up)
chain: B2 chain
modifications: biotinylated
notes: Captured on a streptavidin-coated chip; also called biotinylated hCD25

The target in one assay is T3, cynomolgus monkey IL-2 (cynomolgus monkey, UniProt Q29615 21-154).
T3 construct: also called cIL-2
As to the kind of experiment: SPR, multi-cycle, antibody captured, cynomolgus IL-2 analyte. The source says:
(§1) The SPR analysis was done on Biacore […] (GE healthcare, USA) on CM5 chips (cat:br10005-30, GE healthcare, USA). The chip was crosslinked with primary capture Ab against human IgG (Cat: br-1008-39, GE healthcare, USA) or primary capture antibody against mouse IgG (Cat: BR-1008-38, GE healthcare, USA) to a target of 8000RU. After cross-linking of the primary Ab, the mouse and human tested antibodies were immobilized on the primary Ab to a target of approximately additional 500RU. […] At the end of each cycle the analyte and tested antibody were stripped from the chip using 3M MgCl₂ and new tested Ab was loaded on the chip as described above. When indicated, instead of stripping the antibodies, kinetics was determined by injecting series of analyte concentrations in one cycle by the Single-cycle kinetics method. Binding kinetics were determined by the 1:1 Binding model using the Biacore T200 evaluation software.

Assay [1] has as its target T4, Human IL-2 (human, UniProt P60568 21-153).
T4 construct: Soluble analyte in the SPR experiments; also called hIL-2; recombinant human IL-2
As to the kind of experiment: SPR, multi-cycle, antibody captured, hIL-2 analyte.
Excerpt: as §1
On the technique in general: SPR reads the build-up and loss of mass on a sensor chip optically.

The target of a further assay is T1, Mouse IL-2. The assay is described as follows: no assay described; stated in the methods of the LL/2 tumor model.
The target in assay [2] is T4, Human IL-2. The assay is described as follows: cell-based or functional assay.
The target of assay [3] is T4, Human IL-2. As to the kind of experiment: SPR (Biacore T200), AU-007 captured on a CM5 chip, h-IL2 as analyte at 0.0625-10 nM, multi-cycle, 1:1 binding model. On the procedure:
Affinity and epitope binding site was assessed using Surface Plasmon Resonance (SPR). […] Subsequently, soluble hCD25 was injected followed by the injection of soluble hCD122. […] Diagrams represent SPR sensorgram traces of complex formation of IL-2R/Cytokine.
The chip was crosslinked with a human antibody capture kit (BR100839, GE Healthcare, USA) according to the manufacturer's protocol to target 3000-4000 RU. […] Between each cycle, all channels underwent regeneration using 3M MgCl₂. Binding kinetics were determined by the 1:1 Binding model using the Biacore […] evaluation software, version 3.1.

Assay [4] deals with T2, Fc-tagged CD122 (extracellular domain). As to the kind of experiment: SPR, Fc tagged hCD122 captured on a CM5 chip, soluble hCD25 injected. The method, then: Affinity and epitope binding site was assessed using Surface Plasmon Resonance (SPR). […] […] […] Diagrams represent SPR sensorgram traces of complex formation of IL-2R/Cytokine.
The assay “biotinylated human CD25” addresses B3. The assay is described as follows: SPR, biotinylated hCD25 on the chip, soluble hCD25 injected as a control.
In another assay the target is T5, BDG17.053/hIL-2 complex (human, UniProt P60568 21-153).
T5 construct: Captured humanized IgG1 saturated with 50 nM hIL-2 on the SPR chip; also called humanized IgG-hIL-2 complex
The assay is described as follows: SPR, captured antibody saturated with hIL-2, CD25 injected.

A further assay addresses T6, BDG17.043/hIL-2 complex (human, UniProt P60568 21-153).
T6 construct: Captured humanized IgG1 saturated with 50 nM hIL-2 on the SPR chip; also called humanized IgG-hIL-2 complex
As to the kind of experiment: SPR, antibody captured on CM5 chip and loaded with 50 nM hIL-2; 1000 nM CD25 injected before CD122.

The target of a further assay is T7, BDG17.023-hIL-2 complex (human, UniProt P60568 21-153).
T7 construct: Non-covalent complex made on the SPR chip: immobilized BDG17.023 IgG1 saturated with 50 nM hIL-2; also called BDG17.023-IL-2 complex
As to the kind of experiment: SPR, BDG17.023 on CM5 chip saturated with 50 nM hIL-2; 1000 nM CD25 injected after CD122.

Another assay has as its target T8, BDG17.054/hIL-2 complex (human, UniProt P60568 21-153).
T8 construct: Captured humanized IgG1 saturated with 50 nM hIL-2 on the SPR chip; also called humanized IgG-hIL-2 complex
The assay is described as follows: SPR, antibody captured on CM5 chip and loaded with hIL-2; 1000 nM CD25 injected before CD122 (first set) and after CD122 (second set). On the procedure:
(§2) Subsequently, running buffer was injected for 60 seconds to reach a steady baseline, and then 1000 nM of CD122 was injected for 30 seconds at a flow rate of 30 ul/min. To test CD122 binding, the same experiment was repeated in reverse order, with CD122 injected first flowed by injection of CD25.

The next assay deals with T9, BDG17.038/hIL-2 complex (human, UniProt P60568 21-153).
T9 construct: Captured humanized IgG1 saturated with 50 nM hIL-2 on the SPR chip; also called humanized IgG-hIL-2 complex
The assay is described as follows: SPR, antibody captured on CM5 chip and loaded with 50 nM hIL-2; 1000 nM CD25 injected before CD122. The method, then:
as §2

Assay [5] addresses T10, BDG17.069 (AU-007)/hIL-2 complex (human, UniProt P60568 21-153).
T10 construct: On the SPR chip: captured AU-007 saturated with 50 nM hIL-2; In the HEK reporter assay: hIL-2 titrated in the presence of 200 nM AU-007; also called IL2+AU-007; A/IL-2
The assay is described as follows: SPR, AU-007 captured on CM5 chip and loaded with 10nM hIL-2; 1000nM hCD25 injected before hCD122 (1st set) and after hCD122 (2nd set).

For assay [6], the target named is T11, Non-alpha-IL-2 (naIL-2, hIL-2/hCD25 conjugate) (human, UniProt P01589 22-240; P60568 21-153).
T11 construct: Expressed in Expi293 cells; also called IL-2-CD25 conjugate; hIL-2/CD25 conjugated cytokine
As to the kind of experiment: SPR, biotinylated hCD25 on the chip, naIL-2 injected.

T3 sequence (Q29615 21-154 limits assumed): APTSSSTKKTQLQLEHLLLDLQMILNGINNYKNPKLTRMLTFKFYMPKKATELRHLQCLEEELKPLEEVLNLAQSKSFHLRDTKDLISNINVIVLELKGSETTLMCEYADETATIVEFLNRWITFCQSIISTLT
T4 sequence (P60568 21-153 limits assumed): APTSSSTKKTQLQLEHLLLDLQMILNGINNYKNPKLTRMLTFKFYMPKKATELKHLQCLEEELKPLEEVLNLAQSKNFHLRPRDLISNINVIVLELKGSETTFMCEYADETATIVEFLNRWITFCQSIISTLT
T6 sequence (P60568 21-153 limits assumed, one chain of several): as the sequence (P60568 21-153 limits assumed) above
T8 sequence (P60568 21-153 limits assumed, one chain of several): as the sequence (P60568 21-153 limits assumed) above
T5 sequence (P60568 21-153 limits assumed, one chain of several): as the sequence (P60568 21-153 limits assumed) above
T9 sequence (P60568 21-153 limits assumed, one chain of several): as the sequence (P60568 21-153 limits assumed) above
T7 sequence (P60568 21-153 limits assumed, one chain of several): as the sequence (P60568 21-153 limits assumed) above
T10 sequence (P60568 21-153 limits assumed, one chain of several): as the sequence (P60568 21-153 limits assumed) above

For orientation: Kd means the constant that tells how readily two partners part at equilibrium. In general, koff refers to a measure of how fast the partners let go of each other. Usually kon stands for the second-order rate constant of association. Consider B1, for which the Kd came out at 0.0117 nM with cynomolgus monkey IL-2, 0.0108 nM in the assay with Human IL-2 [1] and 0.0108 nM with Human IL-2 [3]. The koff with cynomolgus monkey IL-2 is 0.000584 s⁻¹; with Human IL-2 [1], 0.000487 s⁻¹; with Human IL-2 [3], 0.000487 s⁻¹. For the same molecule, the kon with cynomolgus monkey IL-2 was determined as 4.98e+07 M⁻¹ s⁻¹; with Human IL-2 [1], 4.5e+07 M⁻¹ s⁻¹; with Human IL-2 [3] it was 4.5e+07 M⁻¹ s⁻¹. In addition, in the assay with Mouse IL-2, the binding result is reported as “no binding”. Moreover, the “IC50 (read off the curve) (%pSTAT5 in CD4+ Tregs of hPBMC stimulated with hIL-2)” value in the assay with Human IL-2 [2] is around 1000 pM.

As for B2, the binding result in assay [4] is listed as “no binding (tested: 1 uM)”; with biotinylated human CD25, “no binding (tested: 1 uM)”; in the assay with BDG17.053/hIL-2 complex, “no binding (tested: 1000 nM)”; with BDG17.043/hIL-2 complex it was “no binding (tested: 1000 nM)”; in the assay with BDG17.023-hIL-2 complex, “no binding (tested: 1000 nM)”; in the assay with BDG17.054/hIL-2 complex, “no binding (tested: 1000 nM)”. Besides, the binding result (in the assay with BDG17.038/hIL-2 complex; in assay [5]) was “no binding (tested: 1000 nM)” in each case.

On to B3, for which, in assay [6], the binding result was “no binding (tested: 1 uM)”.
